# Laboratory results as given in US12269880B2, “LAG3 binding peptides” (Leidos, Inc., priority 2019, dated 2025).
# Where “and” joins values, the source holds several entries; their conditions need not be identical. Identical values can stand only once.
# Columns and labels:
# [1] = molecular target: T1, soluble recombinant human LAG3 (Homo sapiens, UniProt P18627); assay: Clonal phage ELISA after phage display bio-panning; type: binding; conditions: for Clonal Phase ELISA uncoated signal: uncoated (background)
# T1 construct: soluble recombinant human LAG3
# T1 sequence (P18627 23-450 limits assumed): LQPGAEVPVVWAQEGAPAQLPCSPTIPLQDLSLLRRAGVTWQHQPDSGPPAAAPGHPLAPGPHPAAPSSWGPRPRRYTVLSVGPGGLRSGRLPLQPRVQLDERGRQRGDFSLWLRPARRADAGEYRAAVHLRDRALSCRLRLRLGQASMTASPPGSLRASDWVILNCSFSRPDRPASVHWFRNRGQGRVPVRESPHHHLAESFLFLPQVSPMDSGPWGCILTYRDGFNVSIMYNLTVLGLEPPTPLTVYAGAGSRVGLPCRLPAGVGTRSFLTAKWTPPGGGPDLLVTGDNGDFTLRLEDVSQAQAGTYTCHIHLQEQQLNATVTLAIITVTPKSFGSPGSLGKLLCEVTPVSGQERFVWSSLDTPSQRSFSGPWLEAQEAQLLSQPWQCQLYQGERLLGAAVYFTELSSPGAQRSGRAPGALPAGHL
# Source text: The TriCo-20™, TriCo-16™, Ph.D.-12™, and Ph.D. C7™ Phage Display Peptide Libraries (Creative Biolabs, 45-1 Ramsey Road, Shirley, NY 11967) were screened by performing several rounds of bio-panning to identify binders of soluble recombinant human LAG3.
# LAG3/MHC-II interaction = molecular target: T2, LAG3/MHC-II interaction (Homo sapiens, UniProt P18627); assay: HTRF LAG3/MHC-II binding assay (Cisbio)
# T2 construct: purchased Cisbio US Inc
# T2 sequence (P18627 23-450 limits assumed): T1 sequence (P18627 23-450 limits assumed)
# Source text: FIG. 2 is a graph showing the results of a homogeneous time-resolved fluorescence (HTRF) assay for peptide LAG3-11. Reference Ab-LAG3 is an anti-LAG3 antibody. OVA, the ovalbumin (OVA) peptide (ISQAVHAAHAEINEAGR, SEQ ID NO:8). “HTRF ratio” is the emission at 665 nm (acceptor)/emission at 620 nm (donor) multiplied by a factor or 10^4.
# A homogeneous time-resolved fluorescence (HTRF) LAG3/MHC-II binding assay (Cisbio US Inc.) was used to measure the interaction between MHC-II and LAG3 in the presence of peptides. In this assay, the interaction between Tag1-LAG3 and Tag2-MHC-II is detected by using anti-Tag1-Terbium (HTRF donor) and anti-Tag2-XL665 (HTRF acceptor). When the donor and acceptor antibodies are brought into close proximity due to LAG3 and MHC-II binding, excitation of the donor antibody triggers fluorescent resonance energy transfer (FRET) towards the acceptor antibody, which in turn emits specifically at 665 nm. This specific signal is directly proportional to the extent of LAG3/MHC-II interaction. Thus, an agent that blocks the interaction between LAG3 and MHC-II will cause a reduction in HTRF ratio.
# An anti-human LAG3 antibody (Novoprotein #GMP-A092, Lot 0331158, 500 nM) was tested in the assay at an eleven-point, serially diluted semi-log dose response curve starting at 100 nM and served as a positive control. The ovalbumin peptide was used as a negative control. Peptides were reconstituted at a concentration of 20 mM in […] and tested at an eleven-point dose response curve starting at 100 µM followed by 4-fold dilutions. […]
# [2] = LOG [Compound] M tested for peptide −4, single replicates
# [3] = LOG [Compound] M tested for peptide −4.60206, single replicates
# [4] = LOG [Compound] M tested for peptide −5.20412, single replicates
# [5] = LOG [Compound] M tested for peptide −5.80618, single replicates
# [6] = LOG [Compound] M tested for peptide −6.40824
# [7] = LOG [Compound] M tested for peptide −7.0103, single replicates
# [8] = LOG [Compound] M tested for peptide −7.61236, single replicates
# [9] = LOG [Compound] M tested for peptide −8.21442, single replicates
# [10] = LOG [Compound] M tested for peptide −8.81648, single replicates
# [11] = LOG [Compound] M tested for peptide −9.41854, single replicates
# [12] = LOG [Compound] M tested for peptide −10.0206
# [13] = LOG [Compound] M tested for peptide −10.6227
Sequence,Clonal Phase ELISA coated signal [1],Clonal Phase ELISA uncoated signal [1],HTRF ratio (LAG3/MHC-II interaction; [2]),HTRF ratio (LAG3/MHC-II interaction; [3]),HTRF ratio (LAG3/MHC-II interaction; [4]),HTRF ratio (LAG3/MHC-II interaction; [5]),HTRF ratio (LAG3/MHC-II interaction; [6]),HTRF ratio (LAG3/MHC-II interaction; [7]),HTRF ratio (LAG3/MHC-II interaction; [8]),HTRF ratio (LAG3/MHC-II interaction; [9]),HTRF ratio (LAG3/MHC-II interaction; [10]),HTRF ratio (LAG3/MHC-II interaction; [11]),HTRF ratio (LAG3/MHC-II interaction; [12]),HTRF ratio (LAG3/MHC-II interaction; [13])
KVWQVPQDTQHWLSPNFYSV (LAG3-51 peptide),0.234,0.076,3058 and 2773 and 2875,6649 and 6521 and 6468,7908 and 8071 and 8322,8723 and 8946 and 8748,9265 and 8583 and 8662,8098 and 9193 and 9017,8762 and 9360 and 9173,8950 and 8608 and 8357,8834 and 8187 and 8957,8867 and 8809 and 8630,8784 and 8779 and 8696,9082 and 9104 and 9298
FYSPNHEEYHDWNVDSSVNE (LAG3-48 peptide),0.227,0.094,3507 and 2809 and 3028,5662 and 5088 and 5724,8301 and 8213 and 8200,8663 and 9082 and 9045,9264 and 9194 and 9135,8727 and 9103 and 9142,8936 and 9357 and 9297,9082 and 9139 and 9095,8708 and 9153 and 8757,8564 and 8922 and 8442,8765 and 9097 and 8602,8663 and 8904 and 9303
ACGPGSFGDCGGG (LAG3-54 peptide),0.417,0.103,2283 and 4122 and 3912,7055 and 6709 and 6833,8691 and 8561 and 8512,9156 and 9205 and 9142,9161 and 9048 and 8773,9105 and 9141 and 9004,8674 and 9031 and 9075,8996 and 8645 and 8867,8130 and 8918 and 8630,8942 and 8930 and 8755,8344 and 9203 and 8748,9100 and 9262 and 8921
DWNFQQWDWKKHNHLDSHVV (LAG3-42 peptide),0.378,0.084,7234 and 7037 and 7142,8389 and 8097 and 8045,8629 and 8765 and 8733,9281 and 8905 and 8572,9189 and 8945 and 8784,9432 and 8649 and 9072,9209 and 8787 and 9109,9407 and 8205 and 9247,9579 and 9134 and 8703,9137 and 8550 and 8958,8860 and 8937 and 8907,9016 and 8914 and 9210
"ISQAVHAAHAEINEAGR (listed as Gallus gallus) [OVA peptide, reference compound]",,,7154 and 8492 and 8909,8449 and 8472 and 8683,9015 and 8616 and 8579,9180 and 8833 and 9374,9189 and 8634 and 9280,8380 and 8654 and 8970,9015 and 8776 and 8568,9219 and 8624 and 8987,8684 and 8724 and 8639,8625 and 8396 and 8788,8356 and 8986 and 8457,8633 and 9086 and 8892
HESGSVPHPWQFFTHYVS (LAG3-60 peptide),0.330,0.091,2986 and 3079,5934 and 5959 and 5991,8233 and 7988 and 7918,8525 and 8398 and 8342,8614 and 8929 and 9290,9142 and 8745 and 8892,8987 and 8983 and 9320,9275 and 8931 and 9366,9059 and 9248 and 8887,8772 and 8594 and 9169,8924 and 8349 and 8904,8795 and 9240 and 9350
